Paper PMC4465127 (Nature Communications, 2015)

How the values were obtained:
[1] = biological target: the molecule itself; assay: SAXS; home source, I(0)/c, without ligand; 4 °C, pH 8.0, 1.2 to 5 mg/ml protein
[2] = biological target: the molecule itself; assay: AUC; sedimentation equilibrium, without ligand; 1 to 8 μM receptor, 10 mM Hepes pH 8.0, 150 mM NaCl, 20 °C, three speeds; dimer to monomers
[3] = biological target: the molecule itself; assay: AUC; sedimentation equilibrium with 50-70 μM LIN-3^EGF added; 1 to 8 μM receptor, 10 mM Hepes pH 8.0, 150 mM NaCl, 20 °C, three speeds; dimer to monomers
[4] = biological target: the molecule itself; assay: SEC; unliganded sLET-23 during initial purification; Superose 6 10/300 GL, 10 mM Hepes pH 8.0, 150 mM NaCl

Row | Protein | stoichiometry N [1] | Kd [2] [µM] | Kd [3] [µM] | stoichiometry N [4]
1 | sLET-23ΔV (LET-23 extracellular region with domain V deleted) (domain or fragment, C. elegans, UniProt P24348 21-645, looked up, signal peptide in the construct; LET-23 of C. elegans, extracellular domains I-IV (domain V deleted); Dimer by SEC-MALS, SE-AUC and SAXS; source: Sf9 cells (baculovirus), purified from conditioned medium (Ni-NTA, cation exchange, Superose 6)) FGNSNAQLWKRCVSPQDCLCSGTTNGISRYGTGNILEDLETMYRGCRRVYGNLEITWIEANEIKKWRESTNSTVDPKNEDSPLKSINFFDNLEEIRGSLIIYRANIQKISFPRLRVIYGDEVFHDNALYIHKNDKVHEVVMRELRVIRNGSVTIQDNPKMCYIGDKIDWKELLYDPDVQKVETTNSHQHCYQNGKSMAKCHESCNDKCWGSGDNDCQRVYRSVCPKSCSQCFYSNSTSSYECCDSACLGGCTGHGPKNCIACSKYELDGICIETCPSRKIFNHKTGRLVFNPDGRYQNGNHCVKECPPELLIENDVCVRHCSDGHHYDATKDVRECEKCRSSSCPKICTVDGHLTNETLKNLEGCEQIDGHLIIEHAFTYEQLKVLETVKIVSEYITIVQQNFYDLKFLKNLQIIEGRKLHNVRWALAIYQCDDLEELSLNSLKLIKTGAVLIMKNHRLCYVSKIDWSSIITSKGKDNKPSLAIAENRDSKLCETEQRVCDKNCNKRGCWGKEPEDCLECKTWKSVGTCVEKCDTKGFLRNQTSMKCERCSPECETCNGLGELDCLTCRHKTLYNSDFGNRMECVHDCPVSHFPTQKNVCEKCHPTCYDNGCTGPDSNLGYGGCK | 2 |  |  | 
2 | sLET-23ΔIV/V (LET-23 extracellular region with domains IV and V deleted) (domain or fragment, C. elegans, UniProt P24348 21-539, looked up, signal peptide in the construct; LET-23 of C. elegans, extracellular domains I-III (domains IV and V deleted); source: Sf9 cells (baculovirus), purified from conditioned medium (Ni-NTA, cation exchange, Superose 6)) FGNSNAQLWKRCVSPQDCLCSGTTNGISRYGTGNILEDLETMYRGCRRVYGNLEITWIEANEIKKWRESTNSTVDPKNEDSPLKSINFFDNLEEIRGSLIIYRANIQKISFPRLRVIYGDEVFHDNALYIHKNDKVHEVVMRELRVIRNGSVTIQDNPKMCYIGDKIDWKELLYDPDVQKVETTNSHQHCYQNGKSMAKCHESCNDKCWGSGDNDCQRVYRSVCPKSCSQCFYSNSTSSYECCDSACLGGCTGHGPKNCIACSKYELDGICIETCPSRKIFNHKTGRLVFNPDGRYQNGNHCVKECPPELLIENDVCVRHCSDGHHYDATKDVRECEKCRSSSCPKICTVDGHLTNETLKNLEGCEQIDGHLIIEHAFTYEQLKVLETVKIVSEYITIVQQNFYDLKFLKNLQIIEGRKLHNVRWALAIYQCDDLEELSLNSLKLIKTGAVLIMKNHRLCYVSKIDWSSIITSKGKDNKPSLAIAENRDSKLCETEQRVCDKNCNKRGCWGKEPEDCLE |  | 30 | 5 | 
3 | LET-23 extracellular region (sLET-23) (domain or fragment, C. elegans, UniProt P24348 21-819, looked up, signal peptide in the construct; LET-23, the C. elegans EGFR orthologue, extracellular region with domains I-V; Glycosylated (six predicted N-glycosylation sites); Constitutive dimer by SEC and SE-AUC; also called isolated LET-23 extracellular region; C. elegans EGFR extracellular region; source: Sf9 cells (baculovirus), purified from conditioned medium (Ni-NTA, cation exchange, Superose 6)) FGNSNAQLWKRCVSPQDCLCSGTTNGISRYGTGNILEDLETMYRGCRRVYGNLEITWIEANEIKKWRESTNSTVDPKNEDSPLKSINFFDNLEEIRGSLIIYRANIQKISFPRLRVIYGDEVFHDNALYIHKNDKVHEVVMRELRVIRNGSVTIQDNPKMCYIGDKIDWKELLYDPDVQKVETTNSHQHCYQNGKSMAKCHESCNDKCWGSGDNDCQRVYRSVCPKSCSQCFYSNSTSSYECCDSACLGGCTGHGPKNCIACSKYELDGICIETCPSRKIFNHKTGRLVFNPDGRYQNGNHCVKECPPELLIENDVCVRHCSDGHHYDATKDVRECEKCRSSSCPKICTVDGHLTNETLKNLEGCEQIDGHLIIEHAFTYEQLKVLETVKIVSEYITIVQQNFYDLKFLKNLQIIEGRKLHNVRWALAIYQCDDLEELSLNSLKLIKTGAVLIMKNHRLCYVSKIDWSSIITSKGKDNKPSLAIAENRDSKLCETEQRVCDKNCNKRGCWGKEPEDCLECKTWKSVGTCVEKCDTKGFLRNQTSMKCERCSPECETCNGLGELDCLTCRHKTLYNSDFGNRMECVHDCPVSHFPTQKNVCEKCHPTCYDNGCTGPDSNLGYGGCKQCKYAVKYENDTIFCLQSSGMNNVCVENDLPNYYISTYDTEGVIETHCEKCSISCKTCSSAGRNVVQNKCVCKHVEYQPNPSERICMDQCPVNSFMVPDTNNTVCKKCHHECDQNYHCANGQSTGCQKCKNFTVFKGDIAQCVSECPKNLPFSNPANGECLDYDIASRQRKTRM |  | < 1 |  | 2
